Experimental data published in patent US20230322857A1, “RECOMBINANTLY ENGINEERED POLYPEPTIDES CAPABLE OF RECYCLING NONCANONICAL COFACTORS” (The Regents of the University of California, priority 2022, published 2023).

Experiments:
Format in all cases: biochemical
[1] = Steady-state kinetics of TS-PTDH variants with NADP^+; conditions: 100 mM MOPS, pH 7.25, 10 mM sodium phosphite, varied cofactor concentrations; n = 3
Procedure: (§1) Purification and Characterization of TS-PTDH Variants. The E. coli BL21(DE3) strains harboring pQElac plasmids encoding the TS-PTDH or TS-PTDH variants were grown in 2×YT media with kanamycin and ampicillin at 37° C. The IPTG-inducible expression, Ni-affinity purification, and protein concentration determination was conducted as described above.
(§2) The steady-state kinetic parameters toward the coenzymes were measured by spiking purified protein into a 100 μL reaction mixture containing 100 mM MOPS, pH 7.25, 10 mM sodium Pt, and varied cofactor concentrations from 0.02 mM to 5 mM at 25° C. The kinetic parameters were measured by monitoring the […] of reduced coenzyme at 340 nm. Data were fitted to the Michaelis-Menten equation to generate estimates of KM and kcat values.

[2] = Steady-state kinetics of TS-PTDH variants with NMN^+
Procedure: as §1, §2

[3] = TS-PTDH total turnover number determination (NMN(H) cycling with XenA, KIP to levodione); conditions: averaged over the 16-day reaction
Procedure: TS-PTDH Total Turnover Number Determination. Reactions to determine the TTN of TS-PTDH LY-13 (see FIG. 10B) were performed at 1 mL volumes in 2 mL glass vials secured with a PTFE-lined screw cap. Reactions were incubated without shaking at 30° C. Reaction buffer was comprised of 200 mM MOPS at pH 7.5, 100 mM sodium phosphite, 6 mM NMN^+, and 33 mM ketoisophorone (KIP). To initiate the reaction, purified TS-PTDH LY-13 and XenA were spiked into the reaction mixture to a final concentration of 0.25 μM and 18.8 μM, respectively. The reactions were sampled intermittently by removing 50 μL of reaction mixture and mixing with 100 μL of ethyl acetate containing 200 mg/L1-octanol. Samples were vortexed, centrifuged, and the ethyl acetate fraction was transferred to a GC vial for GC-FID analysis. GC-FID analysis for KIP biotransformation efficiency was performed on an Agilent 6850 GD using an Agilent DB-WAX column (30 m×0.56 mm×1 μm). Helium was used as a carrier gas. The inlet and detector were held at 250 and 260° C., respectively. 5 μL of sample was injected with a 2:1 split ratio. […] TTN was calculated by the moles of levodione produced divided by the moles of LY-13 supplied to the reaction system. Total turnover frequency was determined by dividing TTN by the total reaction time of 384 h. Levodione concentration was determined by correlating sample response to a standard curve of known values.

[4] = Steady-state kinetics of TS-PTDH variants with NAD^+; conditions: 100 mM MOPS, pH 7.25, 10 mM sodium phosphite, varied cofactor concentrations; n = 3
Procedure: as §1, §2

[5] = BNA(H)-mediated PTDH biotransformation with TsOYE
Procedure: BNA(H)-Mediated PTDH Biotransformation. Reactions with BNA^+, see FIG. 10D, contained 100 mM MOPS-NaOH at pH 7.6, 10 mM KIP, 100 mM sodium phosphite, and 2% v/v DMSO. BNA^+Cl^−, prepared by refluxing equimolar amounts of nicotinamide and benzyl chloride in acetonitrile overnight, followed by precipitation with diethyl ether on ice was supplied to the reactions at final concentrations of 0, 5, 10, or 20 mM. Reactions were initiated by spiking TsOYE and the appropriate TS-PTDH variant to a final concentration of 10 μM, each. Reaction mixtures were incubated at 30° C. on a Thermomixer C (Eppendorf) with shaking at 900 rpm for 24 h, extracted with 500 μL ethyl acetate containing 5 mM n-dodecane, and analyzed by GC-FID. The cycling system with no BNA was used to determine the background activity of the cycling systems. This value was subtracted from the final levodione concentrations in the 5-, 10-, and 20-mM samples to determine the BNA(H)^− specific levodione production. Concentrations of levodione product were determined using a calibration line (0-10 mM, 6 levels, using n-dodecane as internal standard). The y-intercept of the calibration line was forced through 0.
For BNA(H)-mediated reactions, gas chromatography analyses were performed on a GC-2010 (Shimadzu, Japan) equipped with an AOC-20i auto injector and a flame ionization detector (FID), using a CP-Sil 5 column (25 m×0.25 mm×[…]). 1 μL of sample was injected with a split ratio of 100:1 and injector at 340° C. The FID was maintained at 360° C. Nitrogen was used as the carrier gas, with a linear velocity of 30 cm/s. The oven was held at 135° C. for 1 min, ramped at 15° C./min to 215° C., then 30° C./min to 345° C., and held at 345° C. for 1 min.
Expression and Purification of Proteins for BNA(H)-Mediated Biotransformation Reactions. E. coli BL21(DE3) strains were transformed with the plasmids containing the TS-PTDH variants and grown on LB-agar plates containing ampicillin at 37° C. overnight. An overnight culture, 15 mL LB supplemented with ampicillin, was inoculated with a single colony, and grown at 37° C., 170 rpm overnight. 2 L baffled shake-flasks with 250 mL of 2×YT media containing 200 μg/mL ampicillin, were inoculated with the overnight culture, grown at 37° C., 170 rpm until OD600 of ˜1.0, induced with IPTG (0.5 mM), and grown at 30° C. and 170 rpm for 24 h. Cells were harvested by centrifugation at 18,000×g, 4° C., 10 min and stored at −20° C. until purification.
The pellet was resuspended in four volumes loading buffer (50 mM sodium phosphate, 300 mM sodium chloride, 10 mM imidazole, pH 7.7), and lysed on ice by sonication (Branson sonifier 250; 15 min total, 40% duty cycle, output control 3.5, 2 mm tip). The lysate was clarified (21,000×g, 4° C., 30 min followed by 0.2 μm filtration), and loaded (1 mL/min) onto a Nickel-HisTrap FF crude (1 mL) column, washed with loading buffer (12 column volumes, CV), followed by a step with 10% elution buffer (loading buffer containing 250 mM imidazole; 12 CV). The protein was then eluted with 100% elution buffer and collected in fractions of 0.5 mL. Fractions containing protein were combined and dialyzed against ice-cold dialysis buffer (50 mM sodium phosphate, pH 7.7, 800 mL); the buffer was renewed after the first 2 h of dialysis. Following the dialysis, the protein was mixed with glycerol (20% v/v final concentration). Enzyme concentrations were estimated by the absorbance at 280 nm (non-denatured protein), using predicted extinction coefficients (wild type and LY-13: 26470, LY-7: […]; web.expasy.org/protparam/). The protein was aliquoted, flash frozen in liquid nitrogen, and stored at −80° C. until use. […]

[6] = 100 mM MOPS, pH 7.25, 10 mM sodium phosphite, varied cofactor concentrations, n = 3

B1: LY-13: phosphite dehydrogenase variant with A155N, E175A, A176F (SEQ ID NO: 6) (protein)
chain: MLPKLVITHRVHEEILQLLAPHCELITNQTDSTLTREEILRRCRDAQAMMAFMPDRVDADFLQACPELRVIGCALKGFDNFDVDACTARGVWLTFVPDLLTVPTAELAIGLAVGLGRHLRAADAFVRSGKFRGWQPRFYGTGLDNATVGFLGMGNIGLAMADRLQGWGATLQYHAFKALDTQTEQRLGLRQVACSELFASSDFILLALPLNADTLHLVNAELLALVRPGALLVNPCRGSVVDEAAVLAALERGQLGGYAADVFEMEDWARADRPQQIDPALLAHPNTLFTPHIGSAVRAVRLEIERCAAQNILQALAGERPINAVNRLPKANPAAD
Km [1]: 50 ± 10 µM | NADP^+ kcat [1]: 0.96 ± 0.02 s⁻¹ | Km [2, 6]: 620 µM | NMN^+ kcat [2, 6]: 0.27 ± 0.01 s⁻¹ | increase in catalytic efficiency for NMN^+ compared to TS-PTDH (wild type enzyme) ([2]; vs TS-PTDH): ~110 fold | increased catalytic efficiency (kcat/Km) for NMN^+ compared to TS-PTDH A155N ([2]; vs parent enzyme TS-PTDH A155N): ~44 fold | Total Turnover Frequency [3]: ~117 turnovers per hour | Km [4]: 180 ± 30 µM | NAD^+ kcat [4]: 2.06 ± 0.11 s⁻¹ | activity / cycling with BNA^+ compared to wild type [5]: enhanced activity for BNA^+ reduction | response of biotransformation efficiency to BNA^+ concentration ([5]; 0, 5, 10, or 20 mM BNA^+): cofactor dose-dependent response | utilization of the BNA^+ pool relative to the wild type protein ([5]; 20 mM BNA^+ supplementation, TsOYE, 24 h): improved utilization of the BNA^+ pool
